We go through two substances from publication doi:10.1101/2022.05.03.490418.

In assay [1] the target is aged human serum albumin (human) (UniProt P02768). In words: SEC + ELISA. (An ELISA detects its analyte on a solid surface through an enzyme-linked reagent.)
The target in assay [2] is aged human serum albumin aggregates (human) (UniProt P02768). Description: SEC + ELISA.
The target of assay [3] is aged human serum albumin (human) (UniProt P02768). In words: SEC. In general terms: SEC sorts molecules by how far they enter the pores of the column.

Consider amyloid beta peptide 1-42, for which the values for the fold less Aß bound than by fHSA monomers in assay [1] and in assay [2] were 4 times less and 12 times less, respectively. The substance “aged human serum albumin (from UniProt P02768 25-609) (natural protein)” registered a stoichiometry N (HSA molecules) in assay [3] of 8.
